Measurements as given in US20060287508A1 (Chugai, published 2006).
Changes are numbered by the printed parent chain. In names and notes the source's numbering stands. Values belong to the binder of their own block, whether it stands above or below them.

Legend:
hTF (Thromborel S) [1] = target: T1, hTF (Thromborel S) (human, UniProt P13726 33-295); test: cell-based or functional assay
hTF (Thromborel S) [2] = target: T1, hTF (Thromborel S); test: cell-based or functional assay; remark: listed apart in the source
shTF [3] = target: T2, shTF (human, UniProt P13726 33-251, limits assumed); test: competitive ELISA on coated shTF against biotinylated anti-human TF antibody; anion exchange subpeak
T2 construct: also called human tissue factor
Procedure: (§1) shTF was adjusted to 20 nM with coating buffer (hereafter, indicated as CB), dispensed at 100 μl/well into a 96-well plate and incubated at 4° C. overnight. Each well was washed three times with rinse buffer (hereafter, indicated as RB); 200 μl dilution buffer (hereafter, indicated as DB) was added to each well. The plate was left standing at room temperature for 2 hours for blocking. […] The plate was washed three times with RB. After 100 μl ALP-streptavidin diluted 5,000-fold with DB was dispensed to each well, the plate was left standing for 1 hour at room temperature. Each well was washed 5 times with RB, and SIGMA104 adjusted with substrate buffer (hereafter, indicated as SB) to 1 mg/ml was dispensed to each well. Plates were left standing for 30 min at room temperature for color development and measured with a microplate reader at a wavelength of 405 nm and a control wavelength of 655 nm.
This was taken as the binding activity.

shTF [4] = target: T2, shTF; test: TF binding activity after 4 weeks at 40 C, pH 7.5, against own initial value (FIG. 13B)
shTF [5] = target: T2, shTF; test: competitive ELISA on coated shTF against biotinylated anti-human TF antibody; anion exchange main peak
Procedure: as §1
This was taken as the binding activity.

T1 sequence (P13726 33-295 limits assumed): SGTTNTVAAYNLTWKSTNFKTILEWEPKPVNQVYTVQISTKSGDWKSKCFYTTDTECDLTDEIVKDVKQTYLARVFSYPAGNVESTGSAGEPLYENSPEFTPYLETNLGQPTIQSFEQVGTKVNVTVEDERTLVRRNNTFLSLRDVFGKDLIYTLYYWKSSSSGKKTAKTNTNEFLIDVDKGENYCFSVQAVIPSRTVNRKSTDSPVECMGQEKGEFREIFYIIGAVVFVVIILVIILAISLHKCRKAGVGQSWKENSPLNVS
T2 sequence (P13726 33-251 limits assumed): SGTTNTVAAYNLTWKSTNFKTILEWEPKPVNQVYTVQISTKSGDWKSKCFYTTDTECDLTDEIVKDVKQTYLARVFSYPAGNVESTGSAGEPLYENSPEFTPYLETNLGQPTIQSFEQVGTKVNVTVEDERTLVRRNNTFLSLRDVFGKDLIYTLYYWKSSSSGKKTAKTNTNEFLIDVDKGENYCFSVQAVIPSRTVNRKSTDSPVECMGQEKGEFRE

B1: anti-human TF antibody N28D mutant (antibody, human IgG4 S228P, kappa, V domains shown)
VH: QVQLLESGAVLARPGTSVKISCKASGFDIKDYYMHWVKQRPGQGLEWIGGNDPANGHSMYDPKFQGRVTITADTSTSTVFMELSSLRSEDTAVYYCARDSGYAMDYWGQGTLVTVSS
VL: DIQMTQSPSSLSASVGDRVTITCKASQDIKSFLSWYQQKPEKAPKSLIYYATSLADGVPSRFSGSGSGTDYTLTISSLQPEDFATYYCLQHGESPYTFGGGTKVEIKR
- Calculated concentration (ng/ml) at 250 ng/ml added (hTF (Thromborel S) [1]): 253 ng/mL

B3: anti-human TF antibody N51D/N55D double mutant (antibody, human IgG4 S228P, kappa, V domains shown)
VH: B1 VH with D28N, N51D, N55D
VL: B1 VL
- Calculated concentration (ng/ml) at 250 ng/ml added (hTF (Thromborel S) [1]): 31.3 ng/mL

B5: anti-human TF antibody N51D mutant (antibody, human IgG4 S228P, kappa, V domains shown)
VH: B1 VH with D28N, N51D
VL: B1 VL
- Calculated concentration (ng/ml) at 250 ng/ml added (hTF (Thromborel S) [1]): 164 ng/mL

Other lines, results leading:

- Calculated concentration (ng/ml) at 250 ng/ml added (hTF (Thromborel S) [1]): 248 ng/mL
- Neutralizing activity ratio (%) (hTF (Thromborel S) [1]): 99.1%
- TF neutralizing activity (Equation 2, relative to standard antibody) (hTF (Thromborel S) [2]): 66%
- TF neutralizing activity after accelerated testing at 40 C for 4 weeks, relative to the initial value (hTF (Thromborel S) [2]): ~40%
- Binding Activity, Peak 2 (% of standard antibody) (shTF [3]): 70.6%
- TF binding activity after 4 weeks of accelerated testing (% of its activity before) (shTF [4]): ~60%
- Binding Activity, Peak 1 (% of standard antibody) (shTF [5]): 100%
B2: anti-human TF antibody described in WO 99/51743 (humanized heavy chain version i, humanized light chain version b2) (antibody, human IgG4 S228P, kappa, V domains shown)
VH: B1 VH with D28N
VL: B1 VL
notes: Expressed as human IgG from vector pN5KG4P-AHi-ALb2; also called original anti-human TF antibody; Original

- Calculated concentration (ng/ml) at 250 ng/ml added (hTF (Thromborel S) [1]): 49.8 ng/mL
B4: anti-human TF antibody N55D mutant (antibody, human IgG4 S228P, kappa, V domains shown)
VH: B1 VH with D28N, N55D
VL: B1 VL
